Patent US20220112244A1 (DOMPE FARMACEUTICI S P A, published 2022)
No end group written: not given here.

T1: mouse IL-17A (mouse, UniProt Q62386 26-158)
T1 construct: also called mIL-17 Å; mIL17
T1 sequence (looked up): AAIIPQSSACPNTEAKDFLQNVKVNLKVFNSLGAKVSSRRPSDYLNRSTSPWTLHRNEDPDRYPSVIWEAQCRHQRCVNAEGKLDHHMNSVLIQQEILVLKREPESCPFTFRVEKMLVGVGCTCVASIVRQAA

B1: peptide of SEQ ID NO: 159 (peptide)
peptide: Ac-GHVTIPADLWDWINK-NH2
B2: peptide of SEQ ID NO: 161 (peptide)
peptide: Ac-PHVTIPADLWDWINK-NH2
B3: BIO-3 (peptide)
peptide: {N‑acetylglucosamine-N‑acetylmuramic acid}-IMVTIPADLYEWIEE
B4: peptide of SEQ ID NO: 152 (peptide)
peptide: Ac-VHFTIPADLYNFVRR-NH2
B5: peptide of SEQ ID NO: 14 (peptide)
peptide: Ac-IHVTIPADLWDWVRR-NH2
B6: peptide of SEQ ID NO: 157 (peptide)
peptide: Ac-VPGAGVPGAGIHVTIPA-NH2
B7: peptide of SEQ ID NO: 12 (peptide)
peptide: Ac-IHVTIPADLWDWINE-NH2
B8: High Affinity Peptide (HAP), peptide of SEQ ID NO: 1 (peptide)
peptide: Ac-IHVTIPADLWDWINK-NH2
B9: peptide of SEQ ID NO: 2 (peptide)
peptide: Ac-VHVTIPADLWDWINK-NH2
notes: HAP with Ile 1 replaced by Val
B10: peptide of SEQ ID NO: 39 (peptide)
peptide: Ac-VPGDGVMVTIPADLYEWIEE-NH2
B11: peptide of SEQ ID NO: 150 (peptide)
peptide: Ac-VHFQFPQDLWEWVRR-NH2
B12: BIO-1 (peptide)
peptide: {N‑acetylmuramic acid}-IMVTIPADLYEWIEE
B13: peptide of SEQ ID NO: 4 (peptide)
peptide: Ac-VMVTIPADLWDWINK-NH2
B14: peptide of SEQ ID NO: 162 (peptide)
peptide: Ac-IRVTIPADLWDWINK-NH2
B15: peptide of SEQ ID NO: 160 (peptide)
peptide: Ac-LHVTIPADLWDWINK-NH2
B16: peptide of SEQ ID NO: 37 (peptide)
peptide: Ac-VMVTIPADLYEWIEEVPGAGVPGAG-NH2
B17: peptide of SEQ ID NO: 7 (peptide)
peptide: Ac-IHVTIPADLYEWINK-NH2
modifications: not fully specified
B18: peptide of SEQ ID NO: 151 (peptide)
peptide: Ac-VHFTIPQDLYNWRR-NH2
B19: peptide of SEQ ID NO: 10 (peptide)
peptide: Ac-IHVTIPADLWDWINR-NH2
B20: peptide of SEQ ID NO: 40 (peptide)
peptide: Ac-VMVTIPADLYEWIEEVPGDG-NH2
B21: peptide of SEQ ID NO: 8 (peptide)
peptide: Ac-IHVTIPADLWDWVNK-NH2
B22: peptide of SEQ ID NO: 147 (peptide)
peptide: Ac-VHFTFPQDLYNWVRR-NH2
B23: peptide of SEQ ID NO: 153 (peptide)
peptide: Ac-VHFQIPQDLYNFFRR-NH2
B24: peptide of SEQ ID NO: 156 (peptide)
peptide: Ac-VPGAGVPGAGIHVTI-NH2
B25: BIO-4 (peptide)
peptide: {capric acid}-IMVTIPADLYEWIEE
B26: peptide of SEQ ID NO: 158 (peptide)
peptide: Ac-AHVTIPADLWDWINK-NH2
B27: peptide of SEQ ID NO: 148 (peptide)
peptide: Ac-VHFTFPQDLYNFVRR-NH2
B28: peptide of SEQ ID NO: 9 (peptide)
peptide: Ac-IHVTIPADLWDWIRK-NH2
B29: peptide of SEQ ID NO: 155 (peptide)
peptide: Ac-VRFQFGQEWYNFFRR-NH2
B30: BIO-2 (peptide)
peptide: IMVTIPADLYEWIEEQ-{N‑acetylglucosamine}
B31: peptide of SEQ ID NO: 154 (peptide)
peptide: Ac-VHFQFPQEWYNWFRR-NH2
B32: BIO-5 (peptide)
peptide: {ascorbic acid}-IMVTIPADLYEWIEE
B33: peptide of SEQ ID NO: 149 (peptide)
peptide: Ac-VHVTIPADLYNFFRR-NH2
B34: peptide of SEQ ID NO: 163 (peptide)
peptide: Ac-IKVTIPADLWDWINK-NH2

Assays:
[1] = target: T2, IL-17A (agonist in the IL-17RA/IL17RC dimerization assay) (UniProt Q16552 24-155); assay: cell-based or functional assay
[2] = target: T2, IL-17A (agonist in the IL-17RA/IL17RC …); assay: cell-based or functional assay; remark: listed apart in the source
mouse IL-17A [3] = target: T1, mouse IL-17A; assay: SPR, mouse IL-17A amine-coupled to the chip (3000 RU), peptide 62.5-1000 nM as analyte, Scatchard analysis of RU at equilibrium
mouse IL-17A [4] = target: T1, mouse IL-17A; assay: SPR on immobilised mouse IL-17A

T2 sequence (Q16552 24-155 limits assumed): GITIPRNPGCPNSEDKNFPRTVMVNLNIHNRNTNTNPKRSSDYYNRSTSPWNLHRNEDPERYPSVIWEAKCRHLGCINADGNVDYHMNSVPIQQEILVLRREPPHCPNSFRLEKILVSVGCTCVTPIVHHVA

Binder	IC50 in IL-17RA/IL7RC dimerization assay [1]	further results
B1	< 10000 nM	
B2	< 10000 nM	
B3	< 1000 nM	
B4	< 500 nM	
B5	< 400 nM	IC50, % inhibition of IL-17A-induced IL-17RA/IL17RC dimerization (PathHunter cytokine receptor assay) [2]: 380 nM
B6	< 500 nM	
B7	< 200 nM	IC50, % inhibition of IL-17A-induced IL-17RA/IL17RC dimerization (PathHunter cytokine receptor assay) [2]: 118 nM
B8		Kd (mouse IL-17A [3]): 3700 nM
B9	< 200 nM	IC50, % inhibition of IL-17A-induced IL-17RA/IL17RC dimerization (PathHunter cytokine receptor assay) [2]: 191 nM; fold affinity against SEQ ID NO: 1 (mouse IL-17A [4]): 28 fold; Kd (mouse IL-17A [3]): 130 nM
B10	< 200 nM	IC50, % inhibition of IL-17A-induced IL-17RA/IL17RC dimerization (PathHunter cytokine receptor assay) [2]: 158 nM
B11	< 500 nM	
B12	< 1000 nM	
B13	< 100 nM	IC50, % inhibition of IL-17A-induced IL-17RA/IL17RC dimerization (PathHunter cytokine receptor assay) [2]: 203 nM
B14	< 10000 nM	
B15	< 10000 nM	
B16	< 200 nM	IC50, % inhibition of IL-17A-induced IL-17RA/IL17RC dimerization (PathHunter cytokine receptor assay) [2]: 188 nM
B17		IC50, % inhibition of IL-17A-induced IL-17RA/IL17RC dimerization (PathHunter cytokine receptor assay) [2]: 103 nM

Binder	IC50 in IL-17RA/IL7RC dimerization assay [1]	further results
B18	< 500 nM	
B19	< 400 nM	IC50, % inhibition of IL-17A-induced IL-17RA/IL17RC dimerization (PathHunter cytokine receptor assay) [2]: 263 nM
B20	< 200 nM	IC50, % inhibition of IL-17A-induced IL-17RA/IL17RC dimerization (PathHunter cytokine receptor assay) [2]: 240 nM
B21	< 200 nM	IC50, % inhibition of IL-17A-induced IL-17RA/IL17RC dimerization (PathHunter cytokine receptor assay) [2]: 189 nM
B22	< 500 nM	
B23	< 500 nM	
B24	< 500 nM	
B25	< 1000 nM	
B26	< 10000 nM	
B27	< 500 nM	
B28	< 300 nM	
B29	< 500 nM	
B30	< 1000 nM	
B31	< 500 nM	
B32	< 1000 nM	
B33	< 500 nM	
B34	< 10000 nM	
